Laboratory results reported in paper PMC7934871 (JCI Insight, 2021).
Non-standard residues stand in square brackets, D forms with d. No end group written: not given here. pY = N[C@@H](Cc1ccc(OP(=O)(O)O)cc1)C(=O)O

Target: STAT3 (Homo sapiens, UniProt P40763)
Test: Binding of PS-Gp130 and STAT3, immunoprecipitation and Western blotting
Set-up: endogenous in cells
Conditions: 1 μM, 4 hours prior to harvest
Experimental: Figure 8 PS-Gp130 and PS-MYC blocking peptides efficiently internalize into tumor cells to exert their functions. (A) For 1 hour 1 μM of PS-conjugated MYC (PS-MYC) and Gp130 (PS-Gp130) were incubated with cancer cells. PS-scramble MYC (PS-SC-MYC) was used as a control for PS-MYC. The peptide uptake was visualized by confocal microscopy and quantified by flow cytometry. Data are representative of 3 independent experiments (n = 3). (B) Upper panel: The binding of PS-Gp130 and STAT3 was examined by immunoprecipitation and Western blotting. PO-Gp130 was used as a control. For 4 hours prior to harvest, 1 μM of peptide was incubated with cells. Lower panel: PS-Gp130 inhibits IL-6–induced phosphorylation of STAT3 and p44/42 but not EGF-mediated signaling. […] (C) Gene expression of STAT3 targets was examined by quantitative PCR after the treatment with 1 μM of PS-Gp130 with or without IL-6 stimulation as described above. […] (D) A total of 1 μM of PS-SC-MYC or PS-MYC was incubated with cells for 48 hours before the gene expression of MYC targets was examined by quantitative PCR. […]
Whole cell lysates or tissue homogenates were prepared by using RIPA lysis buffer (50 mM Tris at pH 7.4, 150 mM NaCl, 1 mM EDTA, 0.5% NP-40, 1 mM NaF, 15% glycerol, and 20 mM β-glycerophosphate). […] Protein amounts were determined by BCA using a Thermo Fisher Scientific kit. […]

Chain of STAT3 (P40763 whole entry, species assumed): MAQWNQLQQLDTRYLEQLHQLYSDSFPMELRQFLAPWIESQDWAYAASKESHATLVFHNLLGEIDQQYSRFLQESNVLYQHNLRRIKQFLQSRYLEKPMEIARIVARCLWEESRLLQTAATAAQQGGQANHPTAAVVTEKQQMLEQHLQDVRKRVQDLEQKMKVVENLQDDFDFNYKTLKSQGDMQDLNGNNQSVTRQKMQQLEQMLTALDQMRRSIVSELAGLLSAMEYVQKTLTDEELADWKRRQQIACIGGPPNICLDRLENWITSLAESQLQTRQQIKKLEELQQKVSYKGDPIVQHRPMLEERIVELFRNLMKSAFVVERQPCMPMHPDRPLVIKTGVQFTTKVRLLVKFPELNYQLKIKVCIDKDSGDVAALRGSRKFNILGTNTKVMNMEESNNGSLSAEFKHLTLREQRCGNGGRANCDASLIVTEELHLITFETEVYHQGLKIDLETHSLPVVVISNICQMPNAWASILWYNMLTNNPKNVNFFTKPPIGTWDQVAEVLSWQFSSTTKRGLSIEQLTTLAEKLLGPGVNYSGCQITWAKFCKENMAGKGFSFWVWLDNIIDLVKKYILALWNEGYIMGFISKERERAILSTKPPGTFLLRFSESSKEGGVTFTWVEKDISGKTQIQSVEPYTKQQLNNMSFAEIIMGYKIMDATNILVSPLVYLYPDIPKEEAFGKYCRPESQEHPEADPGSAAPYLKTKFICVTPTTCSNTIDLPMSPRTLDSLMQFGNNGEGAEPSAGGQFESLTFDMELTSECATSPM

binding to STAT3: strongly bound
Substance: PS-Gp130: PS-conjugated Gp130 peptide (amino acids 901–910) with phospho-Tyr905 (MPKS[pY]LPQTV; also: phosphorothioate oligonucleotide conjugate; UniProt P40189 901-910, looked up, fragment)
